In patent US20250177546A1 (SANYOU BIOPHARMACEUTICALS, published 2025):

Tests used:
[1] = molecular target: T1, huROR1-His (human ROR1 ECD AA30-406 with C-terminal His tag, made in house) (human, UniProt Q01973 30-406); assay: Biacore T200 SPR; huROR1-His amine-coupled (~75 RU), antibody 4 and 20 nM as analyte, 1:1 Langmuir fit
T1 construct: range 30-406; Expressed in HEK293; also called antigen protein huROR1-His; not shown: C-terminal His tag
Method: Protein coupling: The huROR1-His protein produced in Example 1.2 was diluted to 5.6 μg/mL with NaAc buffer, pH 5.0, the flow rate was set to 10 μL/min, the chip activation time was set to the default value of 420 s with a mixture of 1-ethyl-(3-dimethylaminopropyl)carbodiimide (EDC) and N-hydroxysuccinimide (NHS), and the antigen protein huROR1-His was fixed to a level of about 75 RU using a coupling mode with a preset coupling amount, and the activated groups that were not bound to the test sample were blocked with ethanolamine.
Sample test conditions: PBS buffer (pH 7.4) containing 0.05% Tween-20 was used as the running buffer, and the running buffer was used as the control test sample. A series of antibody concentrations (4 nM, 20 nM) were set. During sample analysis, the flow rate was set to 30 μL/min, the binding time was 120 s, and the dissociation time was 360 s. After the dissociation was completed, 10 mM Gly-HCl (pH 2.0) was used for regeneration for 20 s to completely remove the antibody bound to the ligand.
Parameter fitting: The experiment was run in multiple cycles, with the response signal taking the analysis time as the horizontal axis and the response value as the vertical axis. After double reference subtraction, the obtained data were fitted by BiAcore T200 analysis software. The fitting model adopted was 1:1 Langmuir binding model, and Affinity metrics such as the binding dissociation constant were determined.

[2] = molecular target: T2, human ROR1 on cells (full-length human ROR1 on huROR1-HEK293 cells; human ROR1 on A549 and HT-29 tumor cells) (human, UniProt Q01973 30-937); assay: flow cytometry (FACS) on huROR1-HEK293 cells, anti-human IgG-Fc secondary antibody, MFI
T2 construct: whole, on cells; also called hROR1-HEK293T; A549 tumor cells
Method: (§1) In this example, the binding activity of the antibody was evaluated using two types of cells, huROR1-HEK293 cells over-expressing human ROR1 and A549 tumor cells.
(§2) The specific method was as follows: huROR1-HEK293 cells or A549 cells in the logarithmic growth phase were prepared to a single-cell suspension, the density was adjusted to 1×10⁶ cells/mL, then 100 μL/well cells were added to a 96-well round-bottom plate, centrifuged at 4° C., 300 g, and the supernatant was removed. […] After the incubation, the cell mixture was washed three times and then 100 μL of 1:300 diluted secondary antibody Goat F(ab′)₂ Anti-Human IgG-Fc (abcam, ab98596) was added. The mixture was incubated at 4° C. in the dark for 30 min. After washing three times, the cells were detected by flow cytometry (Beckman, CytoFLEX AOO-1-1102).

[3] = molecular target: T1, huROR1-His (human ROR1 ECD AA30-406 …); assay: ELISA, huROR1-His coated plate, goat anti-human Fc-HRP, OD450
[4] = molecular target: T3, MusROR1-His (mouse ROR1 ECD AA30-406 with C-terminal His tag) (mouse, UniProt Q9Z139 30-406); assay: ELISA, MusROR1-His coated at 2 µg/mL, goat anti-human Fc-HRP, OD450
T3 construct: range 30-406; Expressed in HEK293; also called mouse ROR1 antigen protein; not shown: C-terminal His tag
Method: (§3) 96-well ELISA plate was coated with 2 μg/mL MusROR1-His (30 μL/well) at 4° C. overnight. The next day, the plate was washed three times with PBST and then blocked with 5% skim milk for 2 h. […] After washing with PBST for three times, the secondary antibody Goat-anti-human Fc-HRP (abcam, ab97225) was added and incubated for 1 h. After incubation, the plate was washed with PBST for 6 times and TMB (SurModics, TMBS-1000-01) was added for color development. According to the color development results, 2 M HCl was added to terminate the reaction, and the data were read at OD450 using a microplate reader (Molecular Devices, SpecterMax 190).

[5] = molecular target: T1, huROR1-His (human ROR1 ECD AA30-406 …); assay: ELISA, huROR1-His coated plate, goat anti-human Fc-HRP, OD450; remark: listed apart in the source
[6] = molecular target: T2, human ROR1 on cells (full-length human …); assay: flow cytometry (FACS) on A549 tumor cells, anti-human IgG-Fc secondary antibody, MFI
Method: as §1, §2

[7] = molecular target: T1, huROR1-His (human ROR1 ECD AA30-406 …); assay: ELISA, huROR1-His coated at 2 µg/mL, goat anti-human Fc-HRP, OD450
Method: as §3, with “huROR1-His” for “MusROR1-His”

[8] = molecular target: T4, huROR2-His (human ROR2 ECD AA34-403 with C-terminal His tag) (human, UniProt Q01974 34-403); assay: ELISA, huROR2-His coated at 2 µg/mL, goat anti-human Fc-HRP, OD450
T4 construct: range 34-403; Expressed in HEK293; also called human ROR2 antigen protein; not shown: C-terminal His tag
Method: as §3, with “huROR2-His” for “MusROR1-His”, “TMBS-1000-0)” for “TMBS-1000-01)”

[9] = molecular target: T1, huROR1-His (human ROR1 ECD AA30-406 …); assay: Gator (BLI) Advanced Kinetics; antibody 30 nM, huROR1-His 480-7.5 nM
Method: First, Q buffer was prepared with PBS (10 mM pH7.4) (IgG-free, purchased from Jackson ImmunoResearch Lab)+0.02% Tween 20 (purchased from thermo)+0.2% BSA (purchased from source culture), and the stock solution of the test antibody was diluted with the prepared Q buffer to a working solution with a final concentration of 30 nM, the stock solution of the antigen protein huROR1-His was prepared with Q buffer into a working solution with multiple dilutions (480, 240, 120, 60, 30, 15, 7.5 nM), and detection and analysis was then performed with Gator instrument and its accompanying software, selecting the Advanced Kinetics experimental mode is used.

[10] = molecular target: T1, huROR1-His (human ROR1 ECD AA30-406 …); assay: ELISA, huROR1-His coated plate, goat anti-human Fc-HRP, OD450; remark: listed apart in the source

T1 sequence (Q01973 30-406 limits assumed): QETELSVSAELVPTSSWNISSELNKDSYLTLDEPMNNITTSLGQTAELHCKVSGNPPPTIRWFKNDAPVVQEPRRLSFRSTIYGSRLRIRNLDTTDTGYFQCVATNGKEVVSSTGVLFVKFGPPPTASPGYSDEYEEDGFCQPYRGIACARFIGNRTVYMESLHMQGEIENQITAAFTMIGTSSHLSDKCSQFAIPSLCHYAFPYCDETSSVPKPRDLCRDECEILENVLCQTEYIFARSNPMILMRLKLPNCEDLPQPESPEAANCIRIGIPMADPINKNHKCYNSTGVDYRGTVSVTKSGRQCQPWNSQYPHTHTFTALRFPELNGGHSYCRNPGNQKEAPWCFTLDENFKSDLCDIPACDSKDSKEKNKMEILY
T2 sequence (Q01973 30-937): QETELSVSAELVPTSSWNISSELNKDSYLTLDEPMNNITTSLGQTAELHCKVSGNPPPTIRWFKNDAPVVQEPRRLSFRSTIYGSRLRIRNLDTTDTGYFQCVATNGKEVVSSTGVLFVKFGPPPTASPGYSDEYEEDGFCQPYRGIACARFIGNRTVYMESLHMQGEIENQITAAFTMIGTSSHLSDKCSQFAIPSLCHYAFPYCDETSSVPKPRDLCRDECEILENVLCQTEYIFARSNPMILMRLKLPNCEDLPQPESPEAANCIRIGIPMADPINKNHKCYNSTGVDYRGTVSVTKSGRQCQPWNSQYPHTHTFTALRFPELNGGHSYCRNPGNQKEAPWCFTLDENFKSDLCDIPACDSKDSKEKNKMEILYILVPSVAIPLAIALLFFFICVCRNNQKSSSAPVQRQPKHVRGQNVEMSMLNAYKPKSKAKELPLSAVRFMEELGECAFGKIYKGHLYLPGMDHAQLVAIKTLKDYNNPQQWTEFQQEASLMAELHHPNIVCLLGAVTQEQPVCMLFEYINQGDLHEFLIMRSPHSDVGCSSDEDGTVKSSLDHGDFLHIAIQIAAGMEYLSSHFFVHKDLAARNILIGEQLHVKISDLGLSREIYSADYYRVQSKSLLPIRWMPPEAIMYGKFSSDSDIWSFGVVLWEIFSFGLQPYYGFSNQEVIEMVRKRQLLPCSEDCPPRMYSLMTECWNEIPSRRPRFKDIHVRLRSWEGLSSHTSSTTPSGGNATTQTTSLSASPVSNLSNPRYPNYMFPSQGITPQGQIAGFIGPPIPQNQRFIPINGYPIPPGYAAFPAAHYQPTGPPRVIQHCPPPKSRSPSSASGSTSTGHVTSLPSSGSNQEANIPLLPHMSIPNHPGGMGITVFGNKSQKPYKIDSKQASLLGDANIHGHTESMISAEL
T3 sequence (Q9Z139 30-406 limits assumed): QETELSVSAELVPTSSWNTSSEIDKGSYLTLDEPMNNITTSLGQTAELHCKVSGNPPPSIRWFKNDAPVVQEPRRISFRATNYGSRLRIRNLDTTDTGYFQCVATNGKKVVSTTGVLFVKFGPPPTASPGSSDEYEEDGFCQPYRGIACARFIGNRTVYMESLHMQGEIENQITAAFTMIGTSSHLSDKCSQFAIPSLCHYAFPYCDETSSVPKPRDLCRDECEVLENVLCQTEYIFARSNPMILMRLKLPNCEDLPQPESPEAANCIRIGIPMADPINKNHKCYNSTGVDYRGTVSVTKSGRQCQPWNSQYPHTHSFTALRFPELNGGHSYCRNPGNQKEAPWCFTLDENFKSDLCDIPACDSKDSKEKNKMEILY
T4 sequence (Q01974 34-403 limits assumed): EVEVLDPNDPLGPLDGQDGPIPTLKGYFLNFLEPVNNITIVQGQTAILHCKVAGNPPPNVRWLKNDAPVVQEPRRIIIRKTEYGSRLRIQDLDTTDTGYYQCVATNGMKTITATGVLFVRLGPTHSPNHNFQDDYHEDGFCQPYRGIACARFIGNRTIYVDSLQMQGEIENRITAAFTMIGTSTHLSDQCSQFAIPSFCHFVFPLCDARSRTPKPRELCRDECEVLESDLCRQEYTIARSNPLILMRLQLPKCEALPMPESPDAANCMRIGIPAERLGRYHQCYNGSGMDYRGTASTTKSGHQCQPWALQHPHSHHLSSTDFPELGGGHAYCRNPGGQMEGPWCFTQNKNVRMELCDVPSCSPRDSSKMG

- Kd [1]: 1.25 nM
- koff [1]: 0.000817 s⁻¹
- kon [1]: 653000 M⁻¹ s⁻¹
- t 1/2 [1]: 14.1 min
- EC50 (read off the curve) [2]: ~80 ng/mL
- EC50 [3]: 1.92 ng/mL
- binding result [4]: no binding (tested: 1 µg/mL)
- EC50 [5]: 2.12 ng/mL
- EC50 (read off the curve) [6]: ~5 ng/mL
- EC50 [7]: 5.49 ng/mL
- binding result [8]: no binding (tested: 1 µg/mL)
- Kd [9]: 5.67 nM
- koff [9]: 0.00217 s⁻¹
- kon [9]: 383000 M⁻¹ s⁻¹
- EC50 [10]: 1.63 ng/mL
B1: B31 (chimeric antibody) (antibody, human IgG1, kappa, V domains shown)
VH: EVMLVESGGGLVKPGGSLKLSCAASGFTFSRYAMSWVRQTPEKRLEWVASISRGGSTYYPDSVKGRFTISRDNARNILYLQMSSLRSEDTAMYYCASYFGNYDAMDYWGQGTSVTVSS
VL: DIQMNQSPSSMYASLGERVTITCKASQDINNYVSWFQQKPGKSPKTLIYRANRLVDGVPSRFSGSGSGQDYSFTISSLEYEDMGIYYCLQFDEFPYTFGGGTKLEIKR
notes: ExpiCHO expression
